Assay [1] concerns the target Munc13-1 MUN domain (residues 933 to 1407, EF, 1453 to 1531) (rat, UniProt Q62768 933-1407; Q62768 1453-1531). Kind of assay: ITC. Background: ITC needs no label: the signal is the heat of the interaction.
A further assay has as its target MUN W1165A (rat, UniProt Q62768 933-1407; Q62768 1453-1531, W1165A). As to the kind of experiment: pull-down.

Data on two molecules can be found in publication PMC11100570 (Science Advances, 2024).

B1: GST-Doc2B 13 to 80 (Mid-L) (domain or fragment, mouse, UniProt P70169 13-80, looked up)
chain: SIQEHMAIDVCPGPIRPIKQISDYFPRFPRGLPPTAAPRAPAPPDAPARSPAASASPRSPSDGARDDD
Consider B1, for which the “fold change of the dissociation constant against Doc2B (13 to 37)” value in assay [1] stood at 10 fold.

B2: GST-Doc2B FL (full-length Doc2B, residues 1 to 412) (natural protein, mouse, UniProt P70169 1-412, looked up)
chain: MTLRRRGEKATISIQEHMAIDVCPGPIRPIKQISDYFPRFPRGLPPTAAPRAPAPPDAPARSPAASASPRSPSDGARDDDEDVDQLFGAYGASPGPSPGPSPARPPAKPPEDEPDVDGYESDDCTALGTLDFSLLYDQENNALHCTISKAKGLKPMDHNGLADPYVKLHLLPGASKANKLRTKTLRNTLNPSWNETLTYYGITDEDMVRKTLRISVCDEDKFRHNEFIGETRVPLKKLKPNHTKTFSICLEKQLPVDKAEDKSLEERGRILISLKYSSQKQGLLVGIVRCAHLAAMDANGYSDPYVKTYLKPDVDKKSKHKTAVKKKTLNPEFNEEFCYEIKHGDLAKKTLEVTVWDYDIGKSNDFIGGVVLGINAKGERLKHWFDCLKNKDKRIERWHTLTNELPGAVLSD
Turning to B2, in assay [1], the “fold change of the dissociation constant against Doc2B (13 to 37)” value amounted to 10 fold and the “stoichiometry N” value was found to be 1. Besides, in the assay with MUN W1165A, the binding result is “binds”.

As usually defined, the stoichiometry N is a count of units in the complex or per binding partner.
